According to patent US12636342B2, “TARS derived from Akkermansia muciniphila or fragment thereof, and use thereof” (KOREA RESEARCH INSTITUTE OF BIOSCIENCE AND BIOTECHNOLOGY, priority 2020, dated 2026):
One block for each molecule: values may come before it.

Key:
[1] = molecular target: T1, mouse TLR2 on bone marrow-derived macrophages (BMDMs), Q9QUN7
T1 chain: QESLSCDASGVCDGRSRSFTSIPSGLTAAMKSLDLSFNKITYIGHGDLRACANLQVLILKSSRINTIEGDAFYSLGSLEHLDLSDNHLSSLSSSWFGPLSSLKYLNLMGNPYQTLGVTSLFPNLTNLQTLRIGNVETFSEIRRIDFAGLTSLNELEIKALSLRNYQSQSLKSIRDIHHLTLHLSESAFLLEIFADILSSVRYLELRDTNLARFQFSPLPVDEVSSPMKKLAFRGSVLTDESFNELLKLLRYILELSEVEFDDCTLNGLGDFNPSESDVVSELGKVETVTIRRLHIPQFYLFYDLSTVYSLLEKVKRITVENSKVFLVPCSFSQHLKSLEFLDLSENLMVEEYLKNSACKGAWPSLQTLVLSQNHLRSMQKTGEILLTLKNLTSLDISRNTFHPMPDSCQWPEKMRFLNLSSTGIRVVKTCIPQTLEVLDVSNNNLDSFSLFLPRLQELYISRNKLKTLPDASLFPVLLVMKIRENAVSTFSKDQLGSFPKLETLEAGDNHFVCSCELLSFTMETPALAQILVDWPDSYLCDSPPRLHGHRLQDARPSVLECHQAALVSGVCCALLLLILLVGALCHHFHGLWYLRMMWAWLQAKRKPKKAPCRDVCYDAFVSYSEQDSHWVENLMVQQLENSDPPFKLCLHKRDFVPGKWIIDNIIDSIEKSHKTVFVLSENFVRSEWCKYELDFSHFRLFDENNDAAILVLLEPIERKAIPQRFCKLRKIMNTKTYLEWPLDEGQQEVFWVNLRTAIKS

[2] = molecular target: T2, TLR4-FLAG (UniProt O00206 24-839, limits assumed); test: Strep pull-down from HEK 293T cells co-expressing Strep-AmTARS and TLR4-FLAG, immunoblot
T2 construct: not shown: FLAG tag

[3] = system: mouse bone marrow-derived macrophages (BMDMs); test: ELISA of immune cytokine secretion in BMDMs under normal conditions; format: cell-based; conditions: normal (non-inflammatory) conditions, 24 h
Description: Specifically, mouse bone marrow-derived macrophages (BMDMs) as mouse-derived immune cells were extracted from the mouse thighbone and shinbone, and then cultured in DMEM containing 10% fetal bovine serum (FBS) and antibiotics. Human macrophages (THP1) as human-derived immune cells were cultured in RPMI media containing 10% FBS and antibiotics.
The cultured cells were treated with AmTARS at 0.1 μM, 0.2 μM, and 0.5 μM for 24 h to obtain cell cultures. For cell removal, the media were centrifuged at 500×g for 10 min to obtain supernatants, which were then analyzed using an ELISA set (mouse interleukin (IL)-6, mouse IL-10, mouse tumor necrosis factor (TNF)-α, human IL-6, human IL-10, human TNF-α; BD Biosciences) to investigate the secretion of mouse- and human-derived immune cytokines. […]

[4] = system: BMDMs from TLR2-KO mouse; test: IL-10 production in BMDMs from TLR2 knock-out mice; format: cell-based
Source text: The TLR2-dependent immune function of AmTARS was further corroborated using TLR2 knock-out (KO) mice. […] However, IL-10 production by […] (U1/U2) was abolished in BMDMs from TLR2-KO mice, providing further evidence that AmTARS regulates host immune cells via its unique regions in a TLR2-dependent manner (FIG. 28D).

T2 sequence (O00206 24-839 limits assumed): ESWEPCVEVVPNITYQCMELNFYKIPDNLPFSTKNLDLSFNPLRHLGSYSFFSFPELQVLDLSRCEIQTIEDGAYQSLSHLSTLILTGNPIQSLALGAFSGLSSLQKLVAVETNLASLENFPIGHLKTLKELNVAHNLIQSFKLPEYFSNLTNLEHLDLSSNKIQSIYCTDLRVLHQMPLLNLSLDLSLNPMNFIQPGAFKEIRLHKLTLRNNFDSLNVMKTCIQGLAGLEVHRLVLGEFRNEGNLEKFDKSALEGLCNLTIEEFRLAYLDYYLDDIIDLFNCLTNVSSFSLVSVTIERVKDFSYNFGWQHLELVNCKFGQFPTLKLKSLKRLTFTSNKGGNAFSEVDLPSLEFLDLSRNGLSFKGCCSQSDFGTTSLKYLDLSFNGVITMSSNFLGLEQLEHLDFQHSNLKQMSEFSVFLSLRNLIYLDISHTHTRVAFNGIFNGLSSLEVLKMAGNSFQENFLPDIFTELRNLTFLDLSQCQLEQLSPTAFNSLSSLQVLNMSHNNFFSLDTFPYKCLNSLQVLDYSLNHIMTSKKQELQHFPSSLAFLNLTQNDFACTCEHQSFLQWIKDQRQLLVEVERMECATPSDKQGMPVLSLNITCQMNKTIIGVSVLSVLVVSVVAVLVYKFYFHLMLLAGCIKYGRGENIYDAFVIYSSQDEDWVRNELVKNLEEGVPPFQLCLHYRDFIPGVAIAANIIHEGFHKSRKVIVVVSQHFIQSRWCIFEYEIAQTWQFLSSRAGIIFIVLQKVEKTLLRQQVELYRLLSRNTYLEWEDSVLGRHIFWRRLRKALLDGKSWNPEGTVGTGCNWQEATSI

binding result [2]: no binding
B1: Strep-tagged Akkermansia muciniphila threonyl-tRNA synthetase (Strep-AmTARS) (enzyme)
chain: MSEHKERKTLEERQQMSDLERLRHSCAHVLATAICRLWPDAQLAGGPAVDNGFYYDVELDHRISTEDFERIEEEMKKVVKENQVFQKEVISRADAMKMAESGELGALGPRSEPSRFKIDLLNDIPEDEEISLYRNGDFTDLCAGPHVGRTGNCKAFKIMSVASAFYKGDKNRPMLQRIYGTCFPNRTQLDEHLERLEEARRRDHRKLGRELGLFCIDESVGQGLILWKPKGALIRRSLQDFITEELDKLGYSQVYTPNIGKLDLYRTSGHFPYYQESQYAPIPERDAMEKLSQEGASCAELFNGLATGTIEGYMLKPMNCPHHIKIYANDAHSYRDLPVRLAEFGTVYRWEQSGELGGMTRVRGFTQDDAHIFCTPDQLAGEIRQCLGIVKTIFGTLGMTDYRVRLSMRDPESDKYVGSPENWDKAEQALREAAEWLGADYSEEAGEAAFYGPKIDFIVRDAIGREWQLGTVQVDYNLPERFDLHYTGADNKPHRPVMVHRAPFGSMERFTGLLIEHFEGKFPTWLSPEQVRVLPISDKVTDVAAAHRTALAARGVRVTVDETPDKIGAKIRNARLDRVPYMLVLGQREAEDGTVSVRHRDKGDLGAMPFEQFADLVAREIAERHISPVI
notes: The tag is put N-terminal from the name 'Strep-AmTARS'; not shown: 2 x Strep tag from vector pEXPR-IBA105
activation of PI3K and AKT, and phosphorylation of GSK3β at Ser9 (western blot) in BMDMs [1]: AmTARS activated PI3K and AKT, and subsequently inhibited GSK3β activity via AKT-mediated phosphorylation at Ser9, in BMDMs

B2: EcTARS (U1/U2): Engineered EcTARS incorporating the AmTARS U1 and U2 regions, SEQ ID NO: 18 (protein)
chain: MPVITLPDGSQRHYDHAVSPMDVALDIGPGLAKACIAGRVNGELVDACDLIENDAQLSIITAKDEEGLEIIRHSCAHLLGHAIKQLWPHTKMAIGPVIDNGFYYDVDLDRTLTQEDVEALEKRMHELAEKNYDVIKKKVSWHEARETFANRGAESGELGALGPRSEPESYKVSILDENIAHDDKPGLYFHEEYVDMCRGPHVPNMRFCHHFKLMKTAGAYWRGDSNNKMLQRIYGTAWADKKALNAYLQRLEEAAKRDHRKIGKQLDLYHMQEEAPGMVFWHNDGWTIFRELEVFVRSKLKEYQYQEVKGPFMMDRVLWEKTGHWDNYKDAMFTTSSEKLSQEGASCAELFNGLATGTIEGNREYCIKPMNCPGHVQIFNQGLKSYRDLPLRMAEFGSCHRNEPSGSLHGLMRVRGFTQDDAHIFCTEEQIRDEVNGCIRLVYDMYSTFGFEKIVVKLSTRPEKRIGSDEMWDRAEADLAVALEENNIPFEYQLGEGAFYGPKIEFTLYDCLDRAWQCGTVQLDFSLPSRLSASYVGEDNERKVPVMIHRAILGSMERFIGILTEEFAGFFPTWLAPVQVVIMNITDSQSEYVNELTQKLSNAGIRVKADLRNEKIGFKIREHTLRRVPYMLVCGDKEVESGKVAVRTRRGKDLGSMDVNEVIEKLQQEIRSRSLKQLEE
modifications: EcTARS(U1/U2)
secretion/production of IL-10 [3]: conferred the ability to trigger IL-10 production
IL-10 production [4]: abolished
